# Measured values reported in paper PMC6250738.
# Legend:
# Assay in all cases: SEC; Superdex 200 10/30 GL, PBS, native conditions; MW from elution volume against protein standards
# [1] = molecular target: NanoLuc luciferase-TriggerTrimer-galectin-3 trimeric nanoassembly (deep sea shrimp | not stated | human)
# [2] = molecular target: chondroitinase ABC I-TriggerTrimer-galectin-3 trimeric nanoassembly
# [3] = molecular target: superfolder green fluorescent protein-TriggerTrimer-galectin-3 trimeric nanoassembly
substance,measurement,setting,value
NanoLuc luciferase-TriggerTrimer-galectin-3 trimeric nanoassembly,stoichiometry N,[1],3
chondroitinase ABC I-TriggerTrimer-galectin-3 trimeric nanoassembly,stoichiometry N,[2],3
superfolder green fluorescent protein-TriggerTrimer-galectin-3 trimeric nanoassembly,stoichiometry N,[3],3
